Target: lavanducyanin halogenase (LvcH) (Streptomyces sp. CNZ-289)
Test: SEC

lavanducyanin halogenase (LvcH) (enzyme)
stoichiometry N: 2

Reference: article PMC11250029
